Km and kcat data for two proteins are collected here from paper PMC4231364, “Functional characterization and structural modeling of synthetic polyester-degrading hydrolases from Thermomonospora curvata” (AMB Express, 2014).

Substrate in data set [1]: CCCC(=O)Oc1ccc([N+](=O)[O-])cc1
Nature of the data set: esterase assay in microplate, Michaelis-Menten kinetics. The format is biochemical, Thermomonospora curvata. The following applies: 25°C, pH 8.5. The text has this:
esterase assay in microplate, Michaelis-Menten kinetics on Tcur1278

Substrate in data set [2]: CCCC(=O)Oc1ccc([N+](=O)[O-])cc1
Described as above. The format is biochemical, Thermomonospora curvata. The following applies: 25°C, pH 8.5. The text has this: esterase assay in microplate, Michaelis-Menten kinetics on Tcur0390
This is another data set of the same source.

B1: Tcur1278 (Thermomonospora curvata DSM 43183) (protein)
chain: ANPYQRGPDPTESLLRAARGPFAVSEQSVSRLSVSGFGGGRIYYPTTTSQGTFGAIAISPGFTASWSSLAWLGPRLASHGFVVIGIETNTRLDQPDSRGRQLLAALDYLTQRSSVRNRVDASRLAVAGHSMGGGGTLEAAKSRTSLKAAIPIAPWNLDKTWPEVRTPTLIIGGELDSIAPVATHSIPFYNSLTNAREKAYLELNNASHFFPQFSNDTMAKFMISWMKRFIDDDTRYDQFLCPPPRAIGDISDYRDTCPHT
notes: mature protein without signal peptide, C-terminal His-tag, codon-optimised synthetic gene, pBAD TOPO, E. coli TOP10, IMAC purified, approx. 35 kDa
B1: in data set [1], the Km was determined as 88.8 ± 12.8 µM and the kcat was determined as 2.3 ± 0.1 s⁻¹.

B2: Tcur0390 (Thermomonospora curvata DSM 43183) (protein)
chain: ANPYQRGPNPTEASITAARGPFNTAEITVSRLSVSGFGGGKIYYPTTTSEGTFGAIAISPGFTAYWSSLEWLGHRLASQGFVVIGIETNTTLDQPDQRGQQLLAALDYLTQRSAVRDRVDASRLAVAGHSMGGGGSLEAAKARTSLKAAIPLAPWNLDKTWPEVRTPTLIIGGELDAVAPVATHSIPFYNSLSNAPEKAYLELDNASHFFPNITNTQMAKYMIAWMKRFIDDDTRYTQFLCPPPSTGLLSDFSDARFTCPM
notes: as for B1
For the protein B2, in data set [2], the Km was found to be 83.1 ± 11.1 µM and the turnover number (kcat) was 12.4 ± 0.4 s⁻¹.

Broadly, the Km is the substrate concentration at which the rate is half of its maximum. As usually defined, the kcat is the number of substrate molecules converted per active site and unit of time at saturation.
